Experimental findings from PMC3637499 are described below.

Assay [1] has as its target Chico-RFP (Drosophila) (UniProt Q9XTN2). Description: FRET or BRET; sensitised emission FRET, CFP donor and mRFP acceptor, confocal microscopy of fixed larval salivary glands co-expressing both fusions (hsp-Gal4); glands incubated 15 min in Schneider's medium without insulin; FRETeff >=10% taken as positive. (In general: Bioluminescence resonance energy transfer reports proximity on the nanometre scale.)

The target is the same in assay [2]. Description: FRET or BRET; sensitised emission FRET, CFP donor and mRFP acceptor, confocal microscopy of fixed larval salivary glands co-expressing both fusions (hsp-Gal4); glands incubated 15 min in Schneider's medium with insulin (100 nM); FRETeff >=10% taken as positive.
The target of assay [3] is InR-CFP (Drosophila) (UniProt P09208). Put plainly: FRET or BRET; sensitised emission FRET, CFP donor and mRFP acceptor, confocal microscopy of fixed larval salivary glands co-expressing both fusions (hsp-Gal4); glands incubated 15 min in Schneider's medium without insulin; FRETeff >=10% taken as positive.
Assay [4] shares this target. Description: FRET or BRET; sensitised emission FRET, CFP donor and mRFP acceptor, confocal microscopy of fixed larval salivary glands co-expressing both fusions (hsp-Gal4); glands incubated 15 min in Schneider's medium with insulin (100 nM); FRETeff >=10% taken as positive.
The target is the same in assay [5]. Put plainly: FRET or BRET; sensitised emission FRET, negative controls with Delta-RFP as acceptor in fixed larval salivary glands; insulin condition not stated; absence of FRET yields values <3%.
The next assay concerns the target Lnk-CFP (Drosophila). The assay is described as above.
The target in assay [6] is InR-CFP (Drosophila) (UniProt P09208). Put plainly: FRET or BRET; sensitised emission FRET, CFP donor and mRFP acceptor, confocal microscopy of fixed larval salivary glands co-expressing both fusions (hsp-Gal4); glands incubated 15 min in Schneider's medium without insulin; FRETeff >=10% taken as positive. The source holds these as a separate data set.
For assay [7] the target is unchanged. Put plainly: FRET or BRET; sensitised emission FRET, CFP donor and mRFP acceptor, confocal microscopy of fixed larval salivary glands co-expressing both fusions (hsp-Gal4); glands incubated 15 min in Schneider's medium with insulin (100 nM); FRETeff >=10% taken as positive. This is another data set of the same source.

Chain of UniProt P09208 (P09208 1086-2144): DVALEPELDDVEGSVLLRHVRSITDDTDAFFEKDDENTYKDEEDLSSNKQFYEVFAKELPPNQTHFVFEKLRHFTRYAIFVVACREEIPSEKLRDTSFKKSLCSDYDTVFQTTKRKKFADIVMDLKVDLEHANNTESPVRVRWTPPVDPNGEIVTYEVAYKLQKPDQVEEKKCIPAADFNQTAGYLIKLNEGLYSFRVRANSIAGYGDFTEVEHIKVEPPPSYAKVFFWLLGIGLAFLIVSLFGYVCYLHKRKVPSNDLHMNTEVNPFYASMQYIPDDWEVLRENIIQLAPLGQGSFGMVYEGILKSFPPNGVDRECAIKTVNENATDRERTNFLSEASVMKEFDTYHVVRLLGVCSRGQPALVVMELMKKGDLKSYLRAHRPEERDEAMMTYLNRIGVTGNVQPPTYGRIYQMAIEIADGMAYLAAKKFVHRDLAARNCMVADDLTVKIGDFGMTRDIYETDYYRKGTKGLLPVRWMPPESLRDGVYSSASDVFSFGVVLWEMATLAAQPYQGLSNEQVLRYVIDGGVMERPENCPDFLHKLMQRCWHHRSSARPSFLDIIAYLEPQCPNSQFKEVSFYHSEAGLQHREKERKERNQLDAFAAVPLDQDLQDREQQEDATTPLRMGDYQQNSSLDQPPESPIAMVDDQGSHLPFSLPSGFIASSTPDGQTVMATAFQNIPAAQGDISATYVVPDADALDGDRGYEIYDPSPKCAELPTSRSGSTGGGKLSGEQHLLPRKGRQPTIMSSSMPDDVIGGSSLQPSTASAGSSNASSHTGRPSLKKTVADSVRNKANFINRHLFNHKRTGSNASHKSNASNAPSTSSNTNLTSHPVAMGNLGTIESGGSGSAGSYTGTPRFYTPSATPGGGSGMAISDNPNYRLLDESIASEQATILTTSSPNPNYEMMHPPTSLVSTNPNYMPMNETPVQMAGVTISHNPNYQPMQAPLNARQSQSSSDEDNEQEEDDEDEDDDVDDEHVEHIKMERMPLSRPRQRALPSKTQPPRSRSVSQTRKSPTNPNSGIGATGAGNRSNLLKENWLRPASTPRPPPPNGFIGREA

For the molecule Lnk-CFP (natural protein), the FRET efficiency (FRETeff) with Chico-RFP (Drosophila) [1] is 13.3%; in the assay with Chico-RFP (Drosophila) [2], 14.8%. Also, the percent of tissue samples with positive FRET with Chico-RFP (Drosophila) [1] was 30%; in the assay with Chico-RFP (Drosophila) [2], 73%.

For Lnk-RFP (natural protein), the figures for the FRET efficiency (FRETeff) in the assay with InR-CFP (Drosophila) [3] and with InR-CFP (Drosophila) [4] were 10.8% and 14%, respectively. Further, the percent of tissue samples with positive FRET with InR-CFP (Drosophila) [3] was 60%; with InR-CFP (Drosophila) [4], 53%.

B1: Delta-RFP (natural protein)
chain: QVHSSGSFELRLKYFSNDHGRDNEGRCCSGESDGATGKCLGSCKTRFRVCLKHYQATIDTTSQCTYGDVITPILGENSVNLTDAQRFQNKGFTNPIQFPFSFSWPGTFSLIVEAWHDTNNSGNARTNKLLIQRLLVQQVLEVSSEWKTNKSESQYTSLEYDFRVTCDLNYYGSGCAKFCRPRDDSFGHSTCSETGEIICLTGWQGDYCHIPKCAKGCEHGHCDKPNQCVCQLGWKGALCNECVLEPNCIHGTCNKPWTCICNEGWGGLYCNQDLNYCTNHRPCKNGGTCFNTGEGLYTCKCAPGYSGDDCENEIYSCDADVNPCQNGGTCIDEPHTKTGYKCHCANGWSGKMCEEKVLTCSDKPCHQGICRNVRPGLGSKGQGYQCECPIGYSGPNCDLQLDNCSPNPCINGGSCQPSGKCICPAGFSGTRCETNIDDCLGHQCENGGTCIDMVNQYRCQCVPGFHGTHCSSKVDLCLIRPCANGGTCLNLNNDYQCTCRAGFTGKDCSVDIDECSSGPCHNGGTCMNRVNSFECVCANGFRGKQCDEESYDSVTFDAHQYGATTQARADGLTNAQVVLIAVFSVAMPLVAVIAACVVFCMKRKRKRAQEKDDAEARKQNEQNAVATMHHNGSGVGVALASASLGGKTGSNSGLTFDGGNPNIIKNTWDKSVNNICASAAAAAAAAAAADECLMYGGYVASVADNNNANSDFCVAPLQRAKSQKQLNTDPTLMHRGSPAGSSAKGASGGGPGAAEGKRISVLGEGSYCSQRWPSLAAAGVAGACSSQLMAAASVAGSGAGTAQQQRSVVCGTPHM
With B1, the FRET efficiency (FRETeff) in the assay with InR-CFP (Drosophila) [5] and with Lnk-CFP (Drosophila) was less than 3% throughout.

B2: Chico-RFP (natural protein)
chain: MASISDDGMALSGYLKKLKTMKKKFFVLYEETSTSAARLEYYDTEKKFLQRAEPKRVIYLKNCFNINRRLDTKHRFVIVLSSRDGGFGIVLENENDLRKWLDKLLVLQRNIANSNGTAHSPYDHVWQVVIQKKGISEKVGITGTYHCCLTSKSLTFVCIGPEKTPNGEDRVASIEILLTTIRRCGHASPQCIFYVELGRQSVLGSGDLWMETDNAAIATNMHNTILSAMSAKTESNTNLINVYQNRPDLSHEPMRKRSSSANEASKPINVNVIQNSQNSLELRSCSSPHNYGFGRERCDSLPTRNGTLSESSNQTYFGSNHGLRSNTISGIRPHSTNKHSNSPTFTMPLRCSESEESSISVDESDDNGSFSHYRLNTRSSETAIPEENIDDFASAELFSKVTEQNVSDENYIPMNPVNPTDAIHEKEKADMQRLEDASLHFNFPEHASEKLAKDFDLDSDNQCCRPIRAYSIGNKVEHLKFNKRLGHLNDTGQNPNRVRAYSVGSKSKIPRCDLQRVVLVEDNKHEFTANRSQSSITKEGTSYGSSANRQKKSTSAPLLSLKNQINSDRMSDLMEIDFSQATNLEKQKFIKNNEIPKYIENVFPKAPRTDSSSLTLHATSQKDIFNGTKLNNTAITSEDGYLEMKPVGNGYTPSSNCLPMKVEKLKLSDYQTAPPLTATAAPVHDLNKISTYNISAEKWREQPSRSEEKKSNSPLNDNTFSSKPTNVESTSKSHDVHSANQIDCEKVCAQSSDKLNNHLADKIVENNNLDIGGHEEKKLVHSISSEDYTQIKDKSNDFTKFNEAGYKILQIKSDSSLISSKLYQKGIHKDNLERSQRLTESVNTIPDNATATAVSSSSLTKFNINSAKPAAAADSRSTGTDPSTPQNILQIKDLNFPSRSSSRISQPELHYASLDLPHCSGQNPAKYLKRGSRESPPVSACPEDGNTYAKIDFDQSDSSSSSSNIFNT
Regarding B2, in the assay with InR-CFP (Drosophila) [6], the FRET efficiency (FRETeff) came out at 13.5% and the percent of tissue samples with positive FRET is 20%. In addition, in the assay with InR-CFP (Drosophila) [7], the FRET efficiency (FRETeff) came out at 14.1% and the percent of tissue samples with positive FRET was 71%.
